From FireProtDB (doi:10.1021/bi00021a023)

Details: Saccharomyces cerevisiae (strain ATCC 204508 / S288c), DSC, reversible: yes; for Tm / unfolding enthalpy (calorimetric) / change of melting temperature, mutant - wild type (higher = more stable): pH 4.6, Thermal, Potassium acetate 0.1 M; for denaturant m value / denaturant midpoint (higher = more stable) / unfolding free energy / ddG of mutation (higher = less stable): pH 7, 22 °C, GdnHCl, Potassium phosphate 0.1 M

Chain of Cytochrome c isoform 1 G12A|N58I, P00044 G12A N58I (P00044 whole entry G12A/N58I, canonical isoform): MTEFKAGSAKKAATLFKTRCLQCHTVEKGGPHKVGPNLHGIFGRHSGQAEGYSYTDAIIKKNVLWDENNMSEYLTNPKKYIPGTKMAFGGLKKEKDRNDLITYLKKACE
Chain of Cytochrome c isoform 1 G12S|N58I, P00044 G12S N58I (P00044 whole entry G12S/N58I, canonical isoform): as the sequence (P00044 whole entry G12A/N58I, canonical isoform) above, with A12S counted along it
Chain of Cytochrome c isoform 1 N58I, P00044 (P00044 whole entry N58I, canonical isoform): as the sequence (P00044 whole entry G12A/N58I, canonical isoform) above, with A12G counted along it
Chain of Cytochrome c isoform 1 wild type, P00044 (P00044 whole entry, canonical isoform): as the sequence (P00044 whole entry G12A/N58I, canonical isoform) above, with A12G, I58N counted along it
Chain of Cytochrome c isoform 1 G12A, P00044 (P00044 whole entry G12A, canonical isoform): as the sequence (P00044 whole entry G12A/N58I, canonical isoform) above, with I58N counted along it

## Cytochrome c isoform 1 wild type, P00044
  Tm: 49.2 °C
  unfolding enthalpy (calorimetric): 78.8 kcal/mol
  denaturant m value: 4.36 kcal/mol/M
  denaturant midpoint (higher = more stable): 1.34 M
  unfolding free energy: 5.86 kcal/mol

## Cytochrome c isoform 1 G12S|N58I, P00044 G12S N58I
Structure 1YCC
  ddG of mutation (higher = less stable): 0.31 kcal/mol
  denaturant m value: 4.75 kcal/mol/M
  denaturant midpoint (higher = more stable): 1.17 M
  unfolding free energy: 5.55 kcal/mol

## Cytochrome c isoform 1 G12A, P00044
Structure 1YCC
  ddG of mutation (higher = less stable): 3.5 kcal/mol
  denaturant m value: 5.4 kcal/mol/M
  denaturant midpoint (higher = more stable): 0.44 M
  unfolding free energy: 2.36 kcal/mol

## Cytochrome c isoform 1 N58I, P00044
Structure 1YCC
  Tm: 62.2 °C
  change of melting temperature, mutant - wild type (higher = more stable): 13 °C
  unfolding enthalpy (calorimetric): 101 kcal/mol

## Cytochrome c isoform 1 G12A|N58I, P00044 G12A N58I
Structure 1YCC
  Tm: 47.4 °C
  change of melting temperature, mutant - wild type (higher = more stable): -1.8 °C
  unfolding enthalpy (calorimetric): 64.7 kcal/mol
